Laboratory results: patent publication US20090028881A1

How the values were obtained:
[1] = target: CCR5 mutant E172A (human) (UniProt P51681); assay: alanine scanning epitope mapping; wild-type CCR5 defined as 100%
[2] = target: CCR5 mutant K171A (human) (UniProt P51681); assay: as above

B1: <CCR5>Pz03.1C5 (antibody, V domains shown)
VH: QVQLKQSGPGLVRPSQSLSITCTVSGFPLGIFGVHWVRQSPGKGLEWLGVIWKGGNTDYNAAFMSRLRITKDNSKSQVFFRMNSLQTDDTAIYYCAKVNLADAMDYWGQGTSVIVSS
VL: DIQMTQSPASLSASVGETVTITCRASGNIHGYLAWFQQKQGKSPQLLVYNTKTLAEGVPSRFSGSGSGTQFSLKINSLQPEDFGNYYCQHHYDLPRTFGGGTKLEIKR
B1 was tested, and the epitope binding (% of wild-type CCR5) [1] was 20% and the epitope binding (% of wild-type CCR5) [2] was 20%.
